Drawing on paper PMC2704394 (2009), this text covers response for one variant.

B1: full length S. pombe Pik1, wild type [S. pombe] / purified Cdc4 protein [S. pombe] (parent)
chain 1: MPSSNSGNELLLRFFESAHFTSQLCVAYLSRYPNNIGIHHFLCEKLATFPYEEIEFFIPQLIHLVLNKDSESVALEEFIISQCEQNTQCALITFWYLQAHMVDLGLQPHSSCFKICKRLYNRIQILVFMSSSSLIQSQQKISENVTPALILSGIMLGGVCVPELLKKAGPIAIAQGRKAPRQDPDESDVDVLRRLSTEPRYSLDVLRSSLNNSIVEQHSEVSLRLKAPELTRTHSYQSSATLSIDEQRRVLRSNYFQQEIQFLFALQDISIRLIIVPRQARLSSLRAELALLNNNLPADVNIPLLRSYHKEVSHKIVRIDPKEATILNSAERVPYLIMVEVLSGELSFEPQSKKNKAKVQKIVSHKNQRKRWFDLTDVDPYTNLQDSTDNDISESESEGGDLSMSPLIKGLVPDTLSLSKSFSSFGNVSLQVPSSHRDTDVVLLSGRHSDSDGNGALKRSKIYASEITARMRAAATMLSQLDAEGSRRPKAETERIKNSIILDMQRLEEERLNEPSIYPVSVDISCAEDLRFGKETQKAERKGDRDDPSAATFQEDWYAKKERIRKSSPYGHYPNWDLVSVIVKTGADLRQETFACQLIYAFQRVWLECKEKVWVRRMKILVTGDNSGLIETITNAISVHSIKKNLTKQLREAELAQGKIAGKNVVTLKDYFIKQFGDPNSSRYRQAQTNFLQSLVAYSIISYLLQLKDRHNGNVLIDSEGHIIHIDFGFLLTNTPGNVGFESAPFKLTADYLEILDDRFDEYRSLMKAAFKSVRKNADQIILLVEVMQNNSTMPCFRAGENTSAQLLQRFQLQLGDKECDDFVDLLIQKANCSVWTRLYDLFQNITNGIY
chain 2: MSTDDSPYKQAFSLFDRHGTGRIPKTSIGDLLRACGQNPTLAEITEIESTLPAEVDMEQFLQVLNRPNGFDMPGDPEEFVKGFQVFDKDATGMIGVGELRYVLTSLGEKLSNEEMDELLKGVPVKDGMVNYHDFVQMILAN

In one assay the parent is B1. The experiment in a line: sandwich ELISA. The note with it: with purified Cdc4 protein [S. pombe]; about 7 µg lysate protein; cells grown in the absence of thiamine; Cdc4-coated wells; parent: 0.02; read off a plot. In general terms: In an ELISA, binding on a coated surface is turned into a signal by an enzyme label.
As to chain 1 D709A, the response was determined as 0.083 Absorbance.

Still in this assay, the particulars now being: with purified Cdc4 protein [S. pombe]; about 14 µg lysate protein; cells grown in the absence of thiamine; Cdc4-coated wells; parent: 0.03; read off a plot.
For chain 1 D709A, the response came out at 0.13 Absorbance.

The same assay, now with this note: with purified Cdc4 protein [S. pombe]; about 28 µg lysate protein; cells grown in the absence of thiamine; Cdc4-coated wells; parent: 0.073; read off a plot.
Take chain 1 D709A: the response is 0.21 Absorbance.

The assay is the same for the next values; noted with them: with purified Cdc4 protein [S. pombe]; about 56 µg lysate protein (highest point of 2-fold serial dilution); cells grown in the absence of thiamine; Cdc4-coated wells; parent: 0.27; read off a plot.
Turning to chain 1 D709A, the response is 0.57 Absorbance.
